Source: PMC8558838 (The Journal of Experimental Medicine, 2021)
Changes are numbered by the printed parent chain. Each block holds one molecule with its values, some of them ahead of it.

T1: mHVEM^−LIGHT (H86D-L90A) soluble protein, mHVEM-hIgG1 format (mouse, UniProt Q80WM9 39-206, H86D | L90A)
T1 construct: mouse HVEM (TNFRSF14) residues Q39-Q206 with H86D and L90A; also called mHVEM H86D-L90A double mutein; source: expressed in soluble form (Expi293, purified on Ni resin, as told for mHVEM-hIgG1); not shown: Fc (human IgG1), C-terminal, kept
T1 sequence (looked up): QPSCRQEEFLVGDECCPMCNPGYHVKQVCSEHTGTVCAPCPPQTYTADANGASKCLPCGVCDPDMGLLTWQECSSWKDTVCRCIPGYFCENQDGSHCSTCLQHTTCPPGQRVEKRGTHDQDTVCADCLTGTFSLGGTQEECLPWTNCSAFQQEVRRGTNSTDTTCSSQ

T2: mHVEM (Q39-Q206)-human IgG1-hexa-His, WT (mouse, UniProt Q80WM9 39-206)
T2 chain: T1 sequence (looked up) with D48H, A52L

T3: mHVEM^−BT/160 (G72R-V74A) soluble protein, mHVEM-hIgG1 format (mouse, UniProt Q80WM9 39-206, G72R | V74A)
T3 construct: mouse HVEM (TNFRSF14) residues Q39-Q206 with G72R and V74A; also called mHVEM G72R-V74A double mutein; source: expressed in soluble form (Expi293, purified on Ni resin, as told for mHVEM-hIgG1); not shown: Fc (human IgG1), C-terminal, kept
T3 sequence (looked up): T1 sequence (looked up) with G34R, V36A, D48H, A52L

T4: mHVEM (Q39-Q206)-human IgG1-hexa-His, WT (mouse, UniProt Q80WM9 39-206)
T4 construct: mouse HVEM (TNFRSF14) residues Q39-Q206; pcDNA 3.3; also called mHVEM-hIgG1; mHVEM^WT; source: Expi293, transfected, purified (Ni resin); not shown: Fc (human IgG1), C-terminal, kept
T4 sequence (looked up): T1 sequence (looked up) with D48H, A52L

B1: mouse BTLA, soluble protein used as analyte in the Octet experiment (ligand, UniProt Q7TSA3 30-183, looked up)
chain: EKATKRNDEECPVQLTITRNSKQSARTGELFKIQCPVKYCVHRPNVTWCKHNGTICVPLEVSPQLYTSWEENQSVPVFVLHFKPIHLSDNGSYSCSTNFNSQVINSHSVTIHVRERTQNSSEHPLITVSDIPDATNASGPSTMEERPGRTWLLY
notes: mouse BTLA (CD272), soluble form; also called mBTLA
B2: human LIGHT extracellular domain (L83-V240) (ligand, UniProt O43557 83-240, looked up)
chain: LIQERRSHEVNPAAHLTGANSSLTGSGGPLLWETQLGLAFLRGLSYHDGALVVTKAGYYYIYSKVQLGGVGCPLGLASTITHGLYKRTPRYPEELELLVSQQSPCGRATSSSRVWWDSSFLGGVVHLEAGEKVVVRVLDERLVRLRDGTRSYFGAFMV
notes: human LIGHT (TNFSF14), extracellular domain, residues L83-V240; Homotrimer; The His tag is used for detection in the flow cytometry staining; also called hLIGHT; TNFSF14; not shown: His6 (HHHHHHG), N-terminal, kept
B3: single chain homotrimeric mLIGHT extracellular domain (G73-V239) connected by two (GGGGS)4 linkers (ligand, mouse)
chain: GGKGSWEKLIQDQRSHQANPAAHLTGANASLIGIGGPLLWETRLGLAFLRGLTYHDGALVTMEPGYYYVYSKVQLSGVGCPQGLANGLPITHGLYKRTSRYPKELELLVSRRSPCGRANSSRVWWDSSFLGGVVHLEAGEEVVVRVPGNRLVRPRDGTRSYFGAFMVGGGGSGGGGSGGGGSGGGGSGGKGSWEKLIQDQRSHQANPAAHLTGANASLIGIGGPLLWETRLGLAFLRGLTYHDGALVTMEPGYYYVYSKVQLSGVGCPQGLANGLPITHGLYKRTSRYPKELELLVSRRSPCGRANSSRVWWDSSFLGGVVHLEAGEEVVVRVPGNRLVRPRDGTRSYFGAFMVGGGGSGGGGSGGGGSGGGGSGGKGSWEKLIQDQRSHQANPAAHLTGANASLIGIGGPLLWETRLGLAFLRGLTYHDGALVTMEPGYYYVYSKVQLSGVGCPQGLANGLPITHGLYKRTSRYPKELELLVSRRSPCGRANSSRVWWDSSFLGGVVHLEAGEEVVVRVPGNRLVRPRDGTRSYFGAFMV
notes: mouse LIGHT (TNFSF14) extracellular domain G73-V239, first copy; linker, printed as (GGGGS)4; mouse LIGHT (TNFSF14) extracellular domain G73-V239, second copy; mouse LIGHT (TNFSF14) extracellular domain G73-V239, third copy; Three copies of the extracellular domain on one chain; source: Expi293, transfected, purified (Ni resin, SEC)
B4: mouse CD160 (30I-154H) with C-terminal …, biotinylated (ligand)
chain: IHVTSSASQKGGRLDLTCTLWHKKDEAEGLILFWCKDNPWNCSPETNLEQLRVKRDPETDGITEKSSQLVFTIEQATPSDSGTYQCCARSQKPEIYIHGHFLSVLVTGNHTEIRQRQRSHPDFSH
modifications: biotin
B5: mouse CD160 (30I-154H) with C-terminal [residues removed], biotinylated (ligand, UniProt O88875 30-154, looked up)
chain: B4 chain
modifications: biotin
notes: mouse CD160 residues 30I-154H; also called mCD160; mCD160-biotin
B6: human HVEM extracellular domain (L39-C162) (domain or fragment, UniProt Q92956 39-162, looked up)
chain: LPSCKEDEYPVGSECCPKCSPGYRVKEACGELTGTVCEPCPPGTYIAHLNGLSKCLQCQMCDPAMGLRASRNCSRTENAVCGCSPGHFCIVQDGDHCAACRAYATSSPGQRVQKGGTESQDTLC
notes: human HVEM (TNFRSF14), extracellular domain, residues L39-C162; positions numbered with initiation codon = 1; Cloned into pMT/BiP/V5-His for His-tag fusion protein production; also called hHVEM; TNFRSF14

How the values were obtained:
mBTLA protein = experiment: flow cytometry, cell–protein method; details: parent: est. 1.0; read off a plot
[1] = target: human LIGHT extracellular domain (L83-V240) (human) (UniProt O43557); experiment: crystal structure; single-chain hCD160–hHVEM and hLIGHT mixed in a 1:1 molar ratio, 5 mg/ml in 10 mM Hepes pH 7.0, 150 mM NaCl; crystallised in 12% PEG3350, 4% tacsimate; 3.5 Å
[2] = target: mouse CD160 (30I-154H) with C-terminal …, biotinylated (UniProt O88875); experiment: flow cytometry, cell–protein method
[3] = target: full-length mouse LIGHT, on cells (mLIGHT-IRES-EGFP) (UniProt Q9QYH9); experiment: flow cytometry, cell–cell method
[4] = target: full-length mouse BTLA-EGFP, on cells (UniProt Q7TSA3); experiment: flow cytometry, cell–cell method
[5] = target: T1, mHVEM^−LIGHT (H86D-L90A) soluble …; experiment: BLI; Octet; mHVEM-hIgG1 immobilised on the sensors, challenged with different concentrations of mLIGHT, mBTLA or mCD160; steady-state fit for mLIGHT, 1:1 Langmuir model for mBTLA and mCD160; details: both partners purified
[6] = target: mHVEM^−LIGHT (H86D-L90A) soluble protein, mHVEM-hIgG1 format (mouse, UniProt Q80WM9 39-206, H86D | L90A); experiment: BLI
[7] = target: T2, mHVEM (Q39-Q206)-human IgG1-hexa-His, WT; experiment: BLI
[8] = target: the molecule itself; experiment: crystal structure; hHVEM and hLIGHT mixed in a 1:1 molar ratio, 3 mg/ml in 10 mM Hepes pH 7.0, 150 mM NaCl; crystallised in 0.1 M Bis-Tris pH 5.5, 0.2 M MgCl2, 9% PEG3350; 2.30 Å
[9] = target: T3, mHVEM^−BT/160 (G72R-V74A) soluble …; experiment: BLI; Octet; mHVEM-hIgG1 immobilised on the sensors, challenged with different concentrations of mLIGHT, mBTLA or mCD160; steady-state fit for mLIGHT, 1:1 Langmuir model for mBTLA and mCD160; details: both partners purified
[10] = target: T4, mHVEM (Q39-Q206)-human IgG1-hexa-His, WT; experiment: as above; details: both partners purified
[11] = target: mHVEM^−BT/160 (G72R-V74A) soluble protein, mHVEM-hIgG1 format (mouse, UniProt Q80WM9 39-206, G72R | V74A); experiment: BLI
[12] = target: B2; experiment: SEC; analytical SEC; equal molar equivalents of hLIGHT and hHVEM monomers mixed; details: both partners purified

ratio to parent (mBTLA protein): 0.78
Molecule: full-length WT mouse HVEM-mCherry, on cells (from UniProt Q80WM9) H86A; L90A

ratio to parent (mBTLA protein): 0.63
Molecule: full-length WT mouse HVEM-mCherry, on cells (from UniProt Q80WM9) H86D; L90R

stoichiometry N (hCD160–hHVEM per hLIGHT homotrimer) [1]: 3
Molecule: single-chain hCD160–hHVEM fusion protein

ratio to parent (mBTLA protein): 0.82
Molecule: full-length WT mouse HVEM-mCherry, on cells (from UniProt Q80WM9) H86D; L90D

ratio to parent (mBTLA protein): 0.01
Molecule: full-length WT mouse HVEM-mCherry, on cells (from UniProt Q80WM9) G72A; V74D

ratio to parent (mBTLA protein): 0.66
Molecule: full-length WT mouse HVEM-mCherry, on cells (from UniProt Q80WM9) H86R; L90A

ratio to parent (mBTLA protein): 0.02
Molecule: full-length WT mouse HVEM-mCherry, on cells (from UniProt Q80WM9) G72D; V74A

ratio to parent (mBTLA protein): 0.01
Molecule: full-length WT mouse HVEM-mCherry, on cells (from UniProt Q80WM9) G72D; V74R

ratio to parent (mBTLA protein): 0.01
Molecule: full-length WT mouse HVEM-mCherry, on cells (from UniProt Q80WM9) G72D; V74D

ratio to parent (mBTLA protein): 0.01
Molecule: full-length WT mouse HVEM-mCherry, on cells (from UniProt Q80WM9) G72R; V74A

ratio to parent [2]: 1
ratio to parent [3]: 1.2
ratio to parent [4]: 1.1
Molecule: full-length WT mouse HVEM-mCherry, on cells (from UniProt Q80WM9) A76A

Molecule: B1
fold reduction of binding against WT mHVEM [5]: ~5 fold
Kd [6]: 5.3 µM
Kd [7]: 1.1 µM

Molecule: B2
stoichiometry N [8]: 3

Molecule: B3
binding result [9]: binds
binding result [10]: binds
Kd [6]: 31.7 µM
Kd [7]: 0.0162 µM
Kd [11]: 0.0293 µM

Molecule: B4
Kd [6]: 33.5 µM
Kd [7]: 11.6 µM

Molecule: B5
fold reduction of binding against WT mHVEM [5]: ~3 fold
binding result [10]: binds

Molecule: B6
stoichiometry N [12]: 3 hHVEM per hLIGHT homotrimer
